Measured values taken from publication PMC3771910, “The Crystal Structure and RNA-Binding of an Orthomyxovirus Nucleoprotein” (PLoS Pathogens, 2013).

How the values were obtained:
[1] = target: ISAV-NP ΔC16 (aa 1–600) (infectious salmon anemia virus (ISAV)); assay: SEC; gel filtration chromatography (Superdex 200) of purified recombinant NP; size estimated against three protein standards
[2] = target: ISAV-NP ΔC16 (aa 1–600) (infectious salmon anemia virus (ISAV)); assay: negative-staining electron microscopy; NP mixed with 24-nt RNA at 2:1 protein:RNA molar ratio in 100 mM NaCl, 25 mM HEPES pH 7.5, 25°C 30 min, purified by gel filtration before use
[3] = target: the molecule itself; assay: SEC; gel filtration chromatography (Superdex 200) of purified recombinant NP; size estimated against three protein standards

Molecule: ISAV-NP ΔC16 (aa 1–600) (domain or fragment)
- stoichiometry N [1]: 2
- stoichiometry N [2]: 2

B1: infectious salmon anemia virus nucleoprotein, full-length (aa 1–616) (natural protein)
chain: MADKGMTYSFDVRDNTLVVRRSTATKSGIKISYREDRGTSLLQKAFAGTEDEFWVELDQDVYVDKKIREFLVEEKMKDMSTRVSGAVAAAIERSVEFDNFSKEAAANIEMAGVDDEEAGGSGLVDNRRKNKGVSNMAYNLSLFIGMVFPALTTFFSAILSEGEMSIWQNGQAIMRILALADEDGKRQTRTGGQRVDMADVTKLNVVTANGKVKQVEVNLNDLKAAFRQSRPKRSDYRKGQGSKATESSISNQCMALIMKSVLSADQLFAPGVKMMRTNGFNASYTTLAEGANIPSKYLRHMRNCGGVALDLMGMKRIKNSPEGAKSKIFSIIQKKVRGRCRTEEQRLLTSALKISDGENKFQRIMDTLCTSFLIDPPRTTKCFIPPISSLMMYIQEGNSVLAMDFMKNGEDACKICREAKLKVGVNSTFTMSVARTCVAVSMVATAFCSADIIENAVPGSERYRSNIKANTTKPKKDSTYTIQGLRLSNVRYEARPETSQSNTDRSWQVNVTDSFGGLAVFNQGAIREMLGDGTSETTSVNVRALVKRILKSASERSARAVKTFMVGEQGKSAIVISGVGLFSIDFEGVEEAERITDMTPEIEFDEDDEEEEDIDI
notes: Nucleoprotein (NP) of infectious salmon anemia virus (ISAV), aa 1-616; Dimer in solution; also called ISAV-NP; wt NP; source: E. coli Rosetta 2 (DE3), purified (HisTrap HP, HiTrap Heparin HP, Superdex 200)
- stoichiometry N [3]: 2
